From patent publication CN117736324A (BEIJING DONGFANG BIOTECH CO LTD; BEIJING JINGYI TAIXIANG …, dated 2024)

T1: 人Siglec-15抗原 (Siglec-15蛋白胞外段) (human, UniProt Q6ZMC9 20-263)
T1 construct: extracellular domain
T1 sequence (looked up): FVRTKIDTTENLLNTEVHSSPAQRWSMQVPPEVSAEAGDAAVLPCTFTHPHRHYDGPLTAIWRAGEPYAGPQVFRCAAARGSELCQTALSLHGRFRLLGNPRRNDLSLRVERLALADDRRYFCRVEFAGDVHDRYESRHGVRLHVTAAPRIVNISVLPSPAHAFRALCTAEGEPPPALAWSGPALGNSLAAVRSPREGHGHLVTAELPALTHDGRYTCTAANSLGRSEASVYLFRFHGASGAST

B1: MA-I 鼠源抗Siglec-15单克隆抗体 (mouse IgG1/Ck) (antibody)
heavy: EVKLEQSGPELVKPGASVKISCKASGYTFTDYNMFWVKQSHGKTLEWIGYIYPDNGGTGYNQNFKSKATLTVDNSSSSAYMELRSLTSEDSAVYYCARSEYDYFDYWGQGTTLTVSSAKTTPPSVYPLAPGSAAQTNSMVTLGCLVKGYFPEPVTVTWNSGSLSSGVHTFPAVLQSDLYTLSSSVTVPSSTWPSETVTCNVAHPASSTKVDKKIVPRDCGCKPCICTVPEVSSVFIFPPKPKDVLTITLTPKVTCVVVDISKDDPEVQFSWFVDDVEVHTAQTQPREEQFNSTFRSVSELPIMHQDWLNGKEFKCRVNSAAFPAPIEKTISKTKGRPKAPQVYTIPPPKEQMAKDKVSLTCMITDFFPEDITVEWQWNGQPAENYKNTQPIMDTDGSYFVYSKLNVQKSNWEAGNTFTCSVLHEGLHNHHTEKSLSHSPG
light: DIVLTQSTSSLSASLGDRVTISCRASQDISNYLNWYQQKPDGTVKLLIYYTSRLHSGVPSRFSGSGSGTDYSLTISNLEQEDIATYFCQQGNTLPLTFGAGTKLELKADAAPTVSIFPPSSEQLTSGGASVVCFLNNFYPKDINVKWKIDGSERQNGVLNSWTDQDSKDSTYSMSSTLTLTKDEYERHNSYTCEATHKTSTSPIVKSFNRNEC
notes: also called MA-1; 鼠源抗体分子
B2: 嵌合抗体CA-I (antibody, human IgG1, kappa, L234A L235A)
heavy: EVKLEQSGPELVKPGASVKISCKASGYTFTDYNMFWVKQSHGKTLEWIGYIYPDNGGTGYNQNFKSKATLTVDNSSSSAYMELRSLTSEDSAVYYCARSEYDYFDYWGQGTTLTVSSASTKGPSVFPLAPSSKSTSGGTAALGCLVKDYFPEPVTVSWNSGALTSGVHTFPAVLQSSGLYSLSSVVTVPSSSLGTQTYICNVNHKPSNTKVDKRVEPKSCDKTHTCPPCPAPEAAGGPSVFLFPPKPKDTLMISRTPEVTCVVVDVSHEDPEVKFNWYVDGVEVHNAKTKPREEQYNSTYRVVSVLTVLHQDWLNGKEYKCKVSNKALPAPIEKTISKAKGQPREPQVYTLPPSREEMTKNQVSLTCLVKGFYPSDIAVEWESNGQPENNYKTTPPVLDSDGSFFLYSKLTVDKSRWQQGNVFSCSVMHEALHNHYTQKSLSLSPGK
light: DIVLTQSTSSLSASLGDRVTISCRASQDISNYLNWYQQKPDGTVKLLIYYTSRLHSGVPSRFSGSGSGTDYSLTISNLEQEDIATYFCQQGNTLPLTFGAGTKLELKRTVAAPSVFIFPPSDEQLKSGTASVVCLLNNFYPREAKVQWKVDNALQSGNSQESVTEQDSKDSTYSLSSTLTLSKADYEKHKVYACEVTHQGLSSPVTKSFNRGEC
B3: MA-II 鼠源抗Siglec-15单克隆抗体 (mouse IgG1/Ck) (antibody, V domains shown)
VH: EVKLEQSGGGLVKPGGSLKLSCAASGFTFSSYAMSWVRQSPEKRLEWVAEIISGGSHTYYPDTVTGRFTISRDDAKNTLYLEMSSLRSEDTAMYYCARDGNYGYAMDYWGQGTSVTVSS
VL: DIVITQTPAIMSASPGEKVTMTCRASSSVSSSYLHWYQQKSGASPKLWIYSTSNLASGVPARFSGGGSGTSYSLTISSVEAEDDATYYCQQWSGYPWTFGGGTKLEIKA
notes: also called 鼠源抗体分子
B4: MA-II 噬菌体单克隆抗体 (phage-displayed scFv) (scFv, V domains shown)
VH: B3 VH
VL: DIVITQTPAIMSASPGEKVTMTCRASSSVSSSYLHWYQQKSGASPKLWIYSTSNLASGVPARFSGGGSGTSYSLTISSVEAEDDATYYCQQWSGYPWTFGGGTKLEIK
notes: also called 抗Siglec-15噬菌体单克隆抗体
B5: MA-I 噬菌体单克隆抗体 (phage-displayed scFv) (scFv, V domains shown)
VH: EVKLEQSGPELVKPGASVKISCKASGYTFTDYNMFWVKQSHGKTLEWIGYIYPDNGGTGYNQNFKSKATLTVDNSSSSAYMELRSLTSEDSAVYYCARSEYDYFDYWGQGTTLTVSS
VL: DIVLTQSTSSLSASLGDRVTISCRASQDISNYLNWYQQKPDGTVKLLIYYTSRLHSGVPSRFSGSGSGTDYSLTISNLEQEDIATYFCQQGNTLPLTFGAGTKLELK
notes: as for B4
B6: MA-III 鼠源抗Siglec-15单克隆抗体 (mouse IgG1/Ck) (antibody, V domains shown)
VH: QVKLEESGPELVKPGASVKMSCKASGYIFTSYVMHWVRQKPGQGLEWIGYIDPYNDRTKYNEKFKGKATLTSDKSSSTAYMELSSLTSEDSAVYYCARSGDYGSSFDYWGQGTTLTVSS
VL: DIVMTQSPSSLSASLGERVSLTCRASQEISGYLSWLQQKPDGTIKRLIYAASTLDSGVPKRFSGSRSGSDYSLTISSLESEDFADYYCLQYASYPYTFGGGTKLEIKA
notes: also called 鼠源抗体分子
B7: MA-III 噬菌体单克隆抗体 (phage-displayed scFv) (scFv, V domains shown)
VH: B6 VH
VL: DIVMTQSPSSLSASLGERVSLTCRASQEISGYLSWLQQKPDGTIKRLIYAASTLDSGVPKRFSGSRSGSDYSLTISSLESEDFADYYCLQYASYPYTFGGGTKLEIK
notes: as for B4
B8: 人源化抗体分子HA-II (human IgG1/Ck) (antibody, V domains shown)
VH: QVQLVQSGAEVKKPGASVKVSCKASGYTFTDYNMFWVRQAPGQRLEWIGYIYPDNGGTGYNQNFKSKATLTVDNSASTAYMELSSLRSEDTAVYYCARSEYDYFDYWGQGTLVTVSS
VL: DIQLTQSPSSLSASVGDRVTITCRASQDISNYLNWYQQKPGKAPKLLIYYTSRLHSGVPSRFSGSGSGTDYTFTISSLQPEDIATYFCQQGNTLPLTFGQGTKVELKR
notes: also called HA-Ⅱ
B9: MA-IV 鼠源抗Siglec-15单克隆抗体 (mouse IgG1/Ck) (antibody, V domains shown)
VH: EVKLQESGAELVKPGASVKLSCIASGFNIKDTFIHWVKQRPEQGLEWIGRIDPASGYTKYDPKFQGKATITTDTSSNTAYLQLSSLTSEDTAVYYCTRSGSYVSFVYWGQGTLVTVSA
VL: DIVMTQTPASLAVSLGQRATISCKASQSVDYDGDSYMNWYQQKPGQPPKLLIYAASNLESGIPARFSGSGSGTDFTLNIHPVEEEDAATYYCQQSNEDPWTFGGGTKLEIKA
notes: also called 鼠源抗体分子
B10: MA-IV 噬菌体单克隆抗体 (phage-displayed scFv) (scFv, V domains shown)
VH: B9 VH
VL: DIVMTQTPASLAVSLGQRATISCKASQSVDYDGDSYMNWYQQKPGQPPKLLIYAASNLESGIPARFSGSGSGTDFTLNIHPVEEEDAATYYCQQSNEDPWTFGGGTKLEIK
notes: as for B4

Assays:
[1] = target: T1, 人Siglec-15抗原 (Siglec-15蛋白胞外段); assay: ELISA, Siglec-15 coated, Goat Anti-Mouse IgG-HRP detection
[2] = target: T1, 人Siglec-15抗原 (Siglec-15蛋白胞外段); assay: ELISA, Siglec-15 coated, Goat Anti Human IgG-HRP detection
[3] = target: T1, 人Siglec-15抗原 (Siglec-15蛋白胞外段); assay: phage supernatant ELISA, screening of single clones

Row | Binder | binding result [1] | binding result [3] | other results
1 | B1 | binds | – | –
2 | B2 | – | – | binding result [2]: binds
3 | B3 | binds | – | –
4 | B4 | – | binds | –
5 | B5 | – | binds | –
6 | B6 | binds | – | –
7 | B7 | – | binds | –
8 | B8 | – | – | binding result [2]: binds
9 | B9 | binds | – | –
10 | B10 | – | binds | –
